According to patent US20090170750A1 (Novo Nordisk, published 2009):

Biological target: purified recombinant human insulin receptor-exon 11 (human) (UniProt P06213)
Experiment: competition with 125I-insulin (SPA)

purified recombinant human insulin receptor-exon 11 (human), sequence (P06213 other isoform, or with tags, fused parts or gaps limits assumed, form in doubt): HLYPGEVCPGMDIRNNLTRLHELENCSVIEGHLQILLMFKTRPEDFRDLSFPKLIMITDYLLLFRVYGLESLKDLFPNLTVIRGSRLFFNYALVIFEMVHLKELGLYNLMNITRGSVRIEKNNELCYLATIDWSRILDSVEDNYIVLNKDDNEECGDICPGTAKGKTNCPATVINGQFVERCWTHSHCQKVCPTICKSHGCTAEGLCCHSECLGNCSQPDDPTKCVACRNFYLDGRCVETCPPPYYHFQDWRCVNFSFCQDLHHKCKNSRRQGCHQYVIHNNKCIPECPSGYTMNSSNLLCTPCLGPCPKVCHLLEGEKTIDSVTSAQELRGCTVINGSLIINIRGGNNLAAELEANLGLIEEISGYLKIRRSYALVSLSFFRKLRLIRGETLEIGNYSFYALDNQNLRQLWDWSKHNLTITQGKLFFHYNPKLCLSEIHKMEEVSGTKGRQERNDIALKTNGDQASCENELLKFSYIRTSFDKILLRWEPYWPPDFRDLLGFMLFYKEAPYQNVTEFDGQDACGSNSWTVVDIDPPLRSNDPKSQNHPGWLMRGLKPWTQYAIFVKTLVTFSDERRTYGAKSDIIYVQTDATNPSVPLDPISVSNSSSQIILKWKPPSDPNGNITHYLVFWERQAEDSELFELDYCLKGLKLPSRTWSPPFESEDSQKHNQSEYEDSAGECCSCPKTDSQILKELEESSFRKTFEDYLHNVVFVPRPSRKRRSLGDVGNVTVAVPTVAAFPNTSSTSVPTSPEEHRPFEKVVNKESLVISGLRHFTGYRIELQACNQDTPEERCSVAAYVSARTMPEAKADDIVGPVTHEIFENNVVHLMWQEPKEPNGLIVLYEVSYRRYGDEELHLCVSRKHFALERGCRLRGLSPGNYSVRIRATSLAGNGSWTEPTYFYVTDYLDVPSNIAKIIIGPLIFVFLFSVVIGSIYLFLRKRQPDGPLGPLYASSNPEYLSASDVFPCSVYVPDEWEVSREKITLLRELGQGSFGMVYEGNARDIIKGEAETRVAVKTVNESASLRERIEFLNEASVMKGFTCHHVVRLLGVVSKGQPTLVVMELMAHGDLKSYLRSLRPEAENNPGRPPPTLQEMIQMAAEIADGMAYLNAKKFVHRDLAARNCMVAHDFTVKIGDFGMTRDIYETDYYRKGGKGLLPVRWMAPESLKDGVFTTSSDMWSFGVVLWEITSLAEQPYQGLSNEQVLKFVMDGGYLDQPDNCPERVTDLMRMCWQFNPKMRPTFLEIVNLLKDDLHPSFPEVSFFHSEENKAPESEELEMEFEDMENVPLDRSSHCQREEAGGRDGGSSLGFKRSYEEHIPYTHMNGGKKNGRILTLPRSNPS

Row | Substance | IR, binding relative to human insulin [%]
1 | single-chain insulin PAK 1767, connecting peptide AGRGSGP [A18Q_A21G] (from UniProt P01308 25-53; P01308 90-110) (ligand) | 28
2 | single-chain insulin PAK 1877, connecting peptide TGLGSGK [B28D_A18Q] (from UniProt P01308 25-53; P01308 90-110) (ligand) | 140
3 | single-chain insulin PAK 1800, connecting peptide AGRGSGK [A18Q_A21G] (from UniProt P01308 25-53; P01308 90-110) (ligand) | 175
4 | single-chain insulin PAK 1784, connecting peptide WASGSGK [A18Q_A21G] (from UniProt P01308 25-53; P01308 90-110) (ligand) | 23
5 | single-chain insulin PAK 1817, connecting peptide AGRGSGK [A21G] (from UniProt P01308 25-53; P01308 90-110) (ligand) | 63
6 | single-chain insulin PAK 1769027, connecting peptide LVGSSSGK [A18Q_A21G] (from UniProt P01308 25-53; P01308 90-110) (ligand) | 68
7 | single-chain insulin PAK 1790, connecting peptide VGLMSGK [A18Q_A21G] (from UniProt P01308 25-53; P01308 90-110) (ligand) | 261
8 | single-chain insulin PAK 1769015, connecting peptide EVGSSSGK [A18Q_A21G] (from UniProt P01308 25-53; P01308 90-110) (ligand) | 42
9 | single-chain insulin PAK 1764, connecting peptide AGLGSGK [A18Q_A21G] (from UniProt P01308 25-53; P01308 90-110) (ligand) | 120
10 | single-chain insulin PAK 1848, connecting peptide TGLGKGR [B27E_B29E_A18Q] (from UniProt P01308 25-53; P01308 90-110) (ligand) | 40
11 | single-chain insulin PAK 1734, connecting peptide VGLSSGK [A21G] (from UniProt P01308 25-53; P01308 90-110) (ligand) | 211
12 | single-chain insulin PAK 1878, connecting peptide VGLSSGQ [B3K_A18K_A21G] (from UniProt P01308 25-53; P01308 90-110) (ligand) | 172
13 | single-chain insulin with connecting peptide GGSSGK (SEQ ID NO:116), no PAK number printed (from UniProt P01308 25-53; P01308 90-110) (ligand) | 23
14 | single-chain insulin PAK 1769020, connecting peptide SVGSSSGK [A18Q_A21G] (from UniProt P01308 25-53; P01308 90-110) (ligand) | 51
15 | single-chain insulin PAK 1821, connecting peptide TGLGSGK [B3Q_B29R_A18Q_A21G] (from UniProt P01308 25-53; P01308 90-110) (ligand) | 128
16 | single-chain insulin PAK 1871, connecting peptide VGLSSGQ [B29A_A18K] (from UniProt P01308 25-53; P01308 90-110) (ligand) | 82
17 | single-chain insulin PAK 1733, connecting peptide VGSSSGK [A21G] (from UniProt P01308 25-53; P01308 90-110) (ligand) | 42
18 | single-chain insulin PAK 1788, connecting peptide VGLYSGK [A18Q_A21G] (from UniProt P01308 25-53; P01308 90-110) (ligand) | 323
